The source of these data is PMC5727259, “Voltage-gated sodium channels assemble and gate as dimers” (Nature Communications, 2017).

This data set concerns the molecule itself. Briefly: single-molecule pull-down (SiMPull) with GFP photobleaching step counting; lysate of transfected HEK293 cells (0.4% CHAPS buffer) perfused over anti-GFP antibody on passivated coverslips; low surface density (0.05 molecules/µm^2); TIRF imaging.

B1: GFP-tagged chloride channel ClC-3 (natural protein, UniProt P51790 1-818, looked up)
chain: MESEQLFHRGYYRNSYNSITSASSDEELLDGAGVIMDFQTSEDDNLLDGDTAVGTHYTMTNGGSINSSTHLLDLLDEPIPGVGTYDDFHTIDWVREKCKDRERHRRINSKKKESAWEMTKSLYDAWSGWLVVTLTGLASGALAGLIDIAADWMTDLKEGICLSALWYNHEQCCWGSNETTFEERDKCPQWKTWAELIIGQAEGPGSYIMNYIMYIFWALSFAFLAVSLVKVFAPYACGSGIPEIKTILSGFIIRGYLGKWTLMIKTITLVLAVASGLSLGKEGPLVHVACCCGNIFSYLFPKYSTNEAKKREVLSAASAAGVSVAFGAPIGGVLFSLEEVSYYFPLKTLWRSFFAALVAAFVLRSINPFGNSRLVLFYVEYHTPWYLFELFPFILLGVFGGLWGAFFIRANIAWCRRRKSTKFGKYPVLEVIIVAAITAVIAFPNPYTRLNTSELIKELFTDCGPLESSSLCDYRNDMNASKIVDDIPDRPAGIGVYSAIWQLCLALIFKIIMTVFTFGIKVPSGLFIPSMAIGAIAGRIVGIAVEQLAYYHHDWFIFKEWCEVGADCITPGLYAMVGAAACLGGVTRMTVSLVVIVFELTGGLEYIVPLMAAVMTSKWVGDAFGREGIYEAHIRLNGYPFLDAKEEFTHTTLAADVMRPRRNDPPLAVLTQDNMTVDDIENMINETSYNGFPVIMSKESQRLVGFALRRDLTIAIESARKKQEGIVGSSRVCFAQHTPSLPAESPRPLKLRSILDMSPFTVTDHTPMEIVVDIFRKLGLRQCLVTHNGRLLGIITKKDILRHMAQTANQDPASIMFN
notes: chloride channel ClC-3 from plasmid pCLC3sGFP (Addgene); also called ClC-3-GFP; pCLC3sGFP; source: HEK293, transfected, in lysate (CHAPS buffer)
The stoichiometry N is a count of units in the complex or per binding partner. As for B1, the “stoichiometry N” value was found to be 2.

B2: transient outward potassium channel Kv4.3 tagged with GFP (natural protein, UniProt Q9UK17 1-655, looked up)
chain: MAAGVAAWLPFARAAAIGWMPVANCPMPLAPADKNKRQDELIVLNVSGRRFQTWRTTLERYPDTLLGSTEKEFFFNEDTKEYFFDRDPEVFRCVLNFYRTGKLHYPRYECISAYDDELAFYGILPEIIGDCCYEEYKDRKRENAERLMDDNDSENNQESMPSLSFRQTMWRAFENPHTSTLALVFYYVTGFFIAVSVITNVVETVPCGTVPGSKELPCGERYSVAFFCLDTACVMIFTVEYLLRLFAAPSRYRFIRSVMSIIDVVAIMPYYIGLVMTNNEDVSGAFVTLRVFRVFRIFKFSRHSQGLRILGYTLKSCASELGFLLFSLTMAIIIFATVMFYAEKGSSASKFTSIPASFWYTIVTMTTLGYGDMVPKTIAGKIFGSICSLSGVLVIALPVPVIVSNFSRIYHQNQRADKRRAQKKARLARIRVAKTGSSNAYLHSKRNGLLNEALELTGTPEEEHMGKTTSLIESQHHHLLHCLEKTTGLSYLVDDPLLSVRTSTIKNHEFIDEQMFEQNCMESSMQNYPSTRSPSLSSHPGLTTTCCSRRSKKTTHLPNSNLPATRLRSMQELSTIHIQGSEQPSLTTSRSSLNLKADDGLRPNCKTSQITTAIISIPTPPALTPEGESRPPPASPGPNTNIPSIASNVVKVSAL
notes: potassium channel Kv4.3 from plasmid pcDNA3.1-Kv4.3-GFP; also called Kv4.3-GFP; pcDNA3.1-Kv4.3-GFP; source: HEK293, transfected, in lysate (CHAPS buffer)
Consider B2, for which the “stoichiometry N” value was 4.
